Test results reported in article PMC2064659 (The Journal of Cell Biology, 2007).

Target: T1, GST-SH3^SGEF (amino acids 789–850) (UniProt Q96DR7 789-850)
T1 sequence (looked up): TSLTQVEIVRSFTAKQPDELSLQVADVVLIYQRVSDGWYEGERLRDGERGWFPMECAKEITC
Assay: pull-down

B1: ICAM1–intracellular tail peptide, biotinylated (peptide)
peptide: GRQRKIKKYRLQQAQKGTPMKPNTQATPP
HELM: PEPTIDE1{[O=C1N[C@H]2[C@H](CS[C@H]2CCCCC(=O)[*:2])N1].G.R.Q.R.K.I.K.K.Y.R.L.Q.Q.A.Q.K.G.T.P.M.K.P.N.T.Q.A.T.P.P}$$$$V2.0
SMILES: CC[C@H](C)[C@H](NC(=O)[C@H](CCCCN)NC(=O)[C@H](CCCNC(=N)N)NC(=O)[C@H](CCC(N)=O)NC(=O)[C@H](CCCNC(=N)N)NC(=O)CNC(=O)CCCC[C@@H]1SC[C@@H]2NC(=O)N[C@@H]21)C(=O)N[C@@H](CCCCN)C(=O)N[C@@H](CCCCN)C(=O)N[C@@H](Cc1ccc(O)cc1)C(=O)N[C@@H](CCCNC(=N)N)C(=O)N[C@@H](CC(C)C)C(=O)N[C@@H](CCC(N)=O)C(=O)N[C@@H](CCC(N)=O)C(=O)N[C@@H](C)C(=O)N[C@@H](CCC(N)=O)C(=O)N[C@@H](CCCCN)C(=O)NCC(=O)N[C@H](C(=O)N1CCC[C@H]1C(=O)N[C@@H](CCSC)C(=O)N[C@@H](CCCCN)C(=O)N1CCC[C@H]1C(=O)N[C@@H](CC(N)=O)C(=O)N[C@H](C(=O)N[C@@H](CCC(N)=O)C(=O)N[C@@H](C)C(=O)N[C@H](C(=O)N1CCC[C@H]1C(=O)N1CCC[C@H]1C(=O)O)[C@@H](C)O)[C@@H](C)O)[C@@H](C)O
B1: binds.
